Measured values from patent US20180312587A1 (ADURO BIOTECH HOLDINGS EUROPE B V, published 2018).

What was measured:
human SIRPγ = biological target: T1, human SIRPγ (human, UniProt Q9P1W8 29-387); assay: CELISA, CHO-K1 transfectants; extrapolated
T1 construct: on transfected CHO-K1 cells; also called hSIRPγ
Method: (§1) Binding of the humanized antibodies to hSIRPα was studied in CELISA format. Binding of the hSIRPα antibodies to human SIRPαV1, SIRPαV2, hSIRPβ1, and hSIRPγ was confirmed using CHO-K1 cells that had been transiently transfected with cDNA encoding the full length open reading frame of each of these respective targets subcloned into the pCI-neo vector. CHO-K1.hSIRPαV1, CHO-K1.hSIRPαV2, CHO-K1.hSIRPβ1, and CHO-K1.hSIRPγ cells were seeded in culture medium (DMEM-F12 (Gibco) supplemented with 5% New Born Calf Serum (BioWest) and Pen/Strep (Gibco)) in 96-well flat-bottom tissue culture plates and incubated at 37° C., 5% CO₂ and 95% humidity until cell layers were confluent. Subsequently, culture medium was removed and cells were incubated for 1 hour at 37° C., 5% CO₂ and 95% humidity with purified hSIRPα antibodies (10 μg/mL and dilutions thereof). Next, cells were washed with PBS-T and incubated for 1 hour at 37° C., 5% CO₂ and 95% humidity with goat-anti-human IgG-HRP conjugate (Jackson Immuno Research) or goat-anti-mouse IgG-HRP (Southern Biotech). Subsequently, cells were washed three times with PBS-T and anti-hSIRPα immunoreactivity was visualized with TMB Stabilized Chromogen (Invitrogen). Reactions were stopped with 0.5 M H₂SO₄ and absorbances were read at 450 and 610 nm. […] In Table 13 the EC50 values of the humanized hSIRPα antibodies are depicted.
(§2) Table 13: Binding of humanized and parental hSIRPα.50A antibodies to CHO-K1.hSIRPαV1, CHO-K1.hSIRPαV2, CHO-K1.hSIRPβ1, and CHO-K1.hSIRPγ cells.

human SIRPβ1 = biological target: T2, human SIRPβ1 (human, UniProt O00241 30-398); assay: CELISA, CHO-K1 transfectants; nd = not detected
T2 construct: also called hSIRPβ1
T2 sequence (O00241 30-398 limits assumed): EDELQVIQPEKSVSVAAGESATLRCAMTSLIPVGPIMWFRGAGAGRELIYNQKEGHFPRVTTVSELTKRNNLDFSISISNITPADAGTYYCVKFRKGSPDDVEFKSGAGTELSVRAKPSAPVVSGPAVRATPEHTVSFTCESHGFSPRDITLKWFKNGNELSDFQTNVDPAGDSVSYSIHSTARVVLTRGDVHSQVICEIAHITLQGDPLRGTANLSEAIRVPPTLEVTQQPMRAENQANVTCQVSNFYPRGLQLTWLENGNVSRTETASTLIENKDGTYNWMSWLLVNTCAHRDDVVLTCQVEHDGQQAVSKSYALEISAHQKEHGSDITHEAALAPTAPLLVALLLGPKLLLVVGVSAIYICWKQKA
Method: as §1, §2

human SIRPα variant 2 = biological target: T3, human SIRPα variant 2 (human, UniProt P78324 31-504); assay: CELISA, CHO-K1 transfectants; average of two experiments
T3 construct: full length ORF on transfected CHO-K1 cells; also called hSIRPαV2; SIRPαV2
T3 sequence (P78324 other isoform, or with tags, fused parts or gaps mutant limits assumed): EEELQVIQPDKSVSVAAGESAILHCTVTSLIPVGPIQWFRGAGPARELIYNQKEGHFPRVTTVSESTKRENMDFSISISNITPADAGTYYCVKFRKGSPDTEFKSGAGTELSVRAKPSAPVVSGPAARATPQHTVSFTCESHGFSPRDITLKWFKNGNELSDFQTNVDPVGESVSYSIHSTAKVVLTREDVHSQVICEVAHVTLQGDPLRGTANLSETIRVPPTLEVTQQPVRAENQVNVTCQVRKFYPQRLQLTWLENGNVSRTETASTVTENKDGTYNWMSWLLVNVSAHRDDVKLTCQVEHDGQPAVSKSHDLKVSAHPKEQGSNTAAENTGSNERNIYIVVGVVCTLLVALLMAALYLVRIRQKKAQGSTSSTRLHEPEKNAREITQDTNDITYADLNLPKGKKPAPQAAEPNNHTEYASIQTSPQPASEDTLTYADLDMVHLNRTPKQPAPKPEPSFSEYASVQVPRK
Method: as §1, §2

human SIRPα variant 1 = biological target: T4, human SIRPα variant 1 (human, UniProt P78324 31-504); assay: as above
T4 construct: full length ORF on transfected CHO-K1 or HEK293 cells; entry includes the signal peptide; also called hSIRPαV1; SIRPαV1
T4 sequence (P78324 31-504 limits assumed, change not shown): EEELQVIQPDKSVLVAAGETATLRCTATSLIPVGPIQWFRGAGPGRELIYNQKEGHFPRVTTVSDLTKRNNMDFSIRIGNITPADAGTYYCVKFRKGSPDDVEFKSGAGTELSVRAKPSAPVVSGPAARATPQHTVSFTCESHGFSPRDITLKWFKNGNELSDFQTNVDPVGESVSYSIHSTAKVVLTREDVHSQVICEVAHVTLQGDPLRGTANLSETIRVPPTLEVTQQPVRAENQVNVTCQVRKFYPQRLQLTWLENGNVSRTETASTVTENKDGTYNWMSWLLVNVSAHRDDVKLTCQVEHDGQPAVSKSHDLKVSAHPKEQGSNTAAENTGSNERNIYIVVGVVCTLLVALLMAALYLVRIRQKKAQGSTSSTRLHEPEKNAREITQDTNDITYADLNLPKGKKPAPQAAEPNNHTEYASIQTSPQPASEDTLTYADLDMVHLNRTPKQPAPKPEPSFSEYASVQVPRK
Method: as §1, §2

T1 sequence (Q9P1W8 29-387 limits assumed): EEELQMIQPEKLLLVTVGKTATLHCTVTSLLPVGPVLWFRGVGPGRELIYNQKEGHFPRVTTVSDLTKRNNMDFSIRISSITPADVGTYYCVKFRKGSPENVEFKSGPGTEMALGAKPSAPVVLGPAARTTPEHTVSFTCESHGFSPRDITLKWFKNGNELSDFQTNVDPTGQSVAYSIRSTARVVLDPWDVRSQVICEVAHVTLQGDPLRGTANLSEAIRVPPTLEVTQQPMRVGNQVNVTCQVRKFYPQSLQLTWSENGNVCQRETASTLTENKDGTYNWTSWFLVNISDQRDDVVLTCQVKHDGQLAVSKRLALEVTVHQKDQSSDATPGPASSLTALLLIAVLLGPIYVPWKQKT

| EC50 (human SIRPγ) [nM] | EC50 (human SIRPα variant 2) [nM] | EC50 (human SIRPα variant 1) [nM] | Binder | binding result (human SIRPβ1) |
| --- | --- | --- | --- | --- |
| 1.03 | 0.709 | 0.731 | hSIRPα.50A.H5L1 (antibody, human IgG4 S228P, kappa, V domains shown, human IgG4 S228P, kappa; also called hSIRPα.50H5L1) VH: EVQLVQSGAEVVKPGASVKVSCKASGFTFTNYYIHWVRQAPEQGLEWIGWIYPGNVNTKYNEKFKARVTMTADKSTSTAYMELSSLRSDDMAVYYCARPTIIATDFDVWGQGTTVTVSS VL: DIVLTQSPSFLSASVGDRVTITCKASQGVGTAVGWYQQKPGKAPKLLIYWASTRHTGVPDRFSGSGSGTEFTLTISSLQPEDFAAYYCQQYSTYPFTFGGGTKLEIKR | no binding (tested: 10 µg/mL and dilutions thereof) |
| 1.6 | 0.898 | 0.933 | hSIRPα.50A.H4L3 (antibody, human IgG4 S228P, kappa, V domains shown, human IgG4 S228P, kappa; also called hSIRPα.50H4L3) VH: EVQLQQSGAELVKPGASVKVSCKASGFTFTNYYIHWVRQRPGQGLEWMGWIYPGNVNTKYNEKFKAKATITADKSTSTAYMELSSLTSEDTAVYYCARPTIIATDFDVWGQGTTVTVSS VL: ELVMTQSPSSLSASVGDRVTITCKASQGVGTAVGWYQQKPGKAPKLLIYWASTRHTGVPDRFSGSGSGTDFTLAISSLQPEDIADYYCQQYSTYPFTFGGGTKVEIKR | no binding (tested: 10 µg/mL and dilutions thereof) |
| 0.868 | 0.611 | 0.681 | hSIRPα.50A.H5L5 (antibody, human IgG4 S228P, kappa, V domains shown, human IgG4 S228P, kappa; also called hSIRPα.50H5L5) VH: EVQLVQSGAEVVKPGASVKVSCKASGFTFTNYYIHWVRQAPEQGLEWIGWIYPGNVNTKYNEKFKARVTMTADKSTSTAYMELSSLRSDDMAVYYCARPTIIATDFDVWGQGTTVTVSS VL: DIVLTQSPSFLSASVGDRVTITCKASQGVGTAVGWYQQKPGKSPKLLIYWASTRHTGVPDRFSGSGSGTEFTLTISNLQPEDFAAYYCQQYSTYPFTFGGGTKLEIKR | no binding (tested: 10 µg/mL and dilutions thereof) |
| 1.61 | 0.796 | 1.03 | hSIRPα.50A.H5L3 (antibody, human IgG4 S228P, kappa, V domains shown, human IgG4 S228P, kappa; also called hSIRPα.50H5L3) VH: EVQLVQSGAEVVKPGASVKVSCKASGFTFTNYYIHWVRQAPEQGLEWIGWIYPGNVNTKYNEKFKARVTMTADKSTSTAYMELSSLRSDDMAVYYCARPTIIATDFDVWGQGTTVTVSS VL: ELVMTQSPSSLSASVGDRVTITCKASQGVGTAVGWYQQKPGKAPKLLIYWASTRHTGVPDRFSGSGSGTDFTLAISSLQPEDIADYYCQQYSTYPFTFGGGTKVEIKR | no binding (tested: 10 µg/mL and dilutions thereof) |
| 0.822 | 0.572 | 0.675 | hSIRPα.50A.H5L2 (antibody, human IgG4 S228P, kappa, V domains shown, human IgG4 S228P, kappa; also called hSIRPα.50H5L2) VH: EVQLVQSGAEVVKPGASVKVSCKASGFTFTNYYIHWVRQAPEQGLEWIGWIYPGNVNTKYNEKFKARVTMTADKSTSTAYMELSSLRSDDMAVYYCARPTIIATDFDVWGQGTTVTVSS VL: DIVMTQSPSSLSASVGDRVTITCKASQGVGTAVGWYQQKPGKAPKLLIYWASTRHTGVPDRFSGSGSGTDFTLTISNLQPEDFADYYCQQYSTYPFTFGGGTKVEIKR | no binding (tested: 10 µg/mL and dilutions thereof) |

More lines, now with the values behind:

| Binder | EC50 (human SIRPγ) [nM] | EC50 (human SIRPα variant 2) [nM] | EC50 (human SIRPα variant 1) [nM] | binding result (human SIRPβ1) |
| --- | --- | --- | --- | --- |
| hSIRPα.50A.H1L2 (antibody, human IgG4 S228P, kappa, V domains shown, human IgG4 S228P, kappa; also called hSIRPα.50H1L2) VH: EVQLQQSGAEVVKPGASVKVSCKASGFTFTNYYIHWVRQAPGQGLEWIGWIYPGNVNTKYNEKFKARVTITADKSTSTAYMDLSSLRSEDTAVYYCARPTIIATDFDVWGQGTTVTVSS VL: DIVMTQSPSSLSASVGDRVTITCKASQGVGTAVGWYQQKPGKAPKLLIYWASTRHTGVPDRFSGSGSGTDFTLTISNLQPEDFADYYCQQYSTYPFTFGGGTKVEIKR | 1.26 | 0.816 | 0.781 | no binding (tested: 10 µg/mL and dilutions thereof) |
| hSIRPα.50A.H3L3 (antibody, human IgG4 S228P, kappa, V domains shown, human IgG4 S228P, kappa; also called hSIRPα.50H3L3) VH: EVQLVQSGAEVVKPGASVMISCKASGFTFTNYYIHWVRQRPGQGLEWIGWIYPGNVNTKYNEKFKARVIMTADKSTSTVYMQLSSLTSEDTAVYYCARPTIIATDFDVWGQGTLVTVSS VL: ELVMTQSPSSLSASVGDRVTITCKASQGVGTAVGWYQQKPGKAPKLLIYWASTRHTGVPDRFSGSGSGTDFTLAISSLQPEDIADYYCQQYSTYPFTFGGGTKVEIKR | 2.47 | 1.16 | 1.16 | no binding (tested: 10 µg/mL and dilutions thereof) |
| hSIRPα.50A.H3L1 (antibody, human IgG4 S228P, kappa, V domains shown, human IgG4 S228P, kappa; also called hSIRPα.50H3L1) VH: EVQLVQSGAEVVKPGASVMISCKASGFTFTNYYIHWVRQRPGQGLEWIGWIYPGNVNTKYNEKFKARVIMTADKSTSTVYMQLSSLTSEDTAVYYCARPTIIATDFDVWGQGTLVTVSS VL: DIVLTQSPSFLSASVGDRVTITCKASQGVGTAVGWYQQKPGKAPKLLIYWASTRHTGVPDRFSGSGSGTEFTLTISSLQPEDFAAYYCQQYSTYPFTFGGGTKLEIKR | 1.42 | 1.06 | 1.1 | no binding (tested: 10 µg/mL and dilutions thereof) |
| hSIRPα.50A.H1L4 (antibody, human IgG4 S228P, kappa, V domains shown, human IgG4 S228P, kappa; also called hSIRPα.50H1L4) VH: EVQLQQSGAEVVKPGASVKVSCKASGFTFTNYYIHWVRQAPGQGLEWIGWIYPGNVNTKYNEKFKARVTITADKSTSTAYMDLSSLRSEDTAVYYCARPTIIATDFDVWGQGTTVTVSS VL: DIQMTQSPSSLSASVGDRVTITCKASQGVGTAVGWYQKKPGKVPKLLIYWASTRHTGVPDRFSGSGSGTDFTLTINGLQPEDVATYYCQQYSTYPFTFGGGTKLEIKR | 7.43 | 1.62 | 1.49 | no binding (tested: 10 µg/mL and dilutions thereof) |
| hSIRPα.50A.H1L3 (antibody, human IgG4 S228P, kappa, V domains shown, human IgG4 S228P, kappa; also called hSIRPα.50H1L3) VH: EVQLQQSGAEVVKPGASVKVSCKASGFTFTNYYIHWVRQAPGQGLEWIGWIYPGNVNTKYNEKFKARVTITADKSTSTAYMDLSSLRSEDTAVYYCARPTIIATDFDVWGQGTTVTVSS VL: ELVMTQSPSSLSASVGDRVTITCKASQGVGTAVGWYQQKPGKAPKLLIYWASTRHTGVPDRFSGSGSGTDFTLAISSLQPEDIADYYCQQYSTYPFTFGGGTKVEIKR | 2.58 | 1.11 | 1.09 | no binding (tested: 10 µg/mL and dilutions thereof) |
| hSIRPα.50A.H1L1 (antibody, human IgG4 S228P, kappa, V domains shown, human IgG4 S228P, kappa; also called hSIRPα.50H1L1) VH: EVQLQQSGAEVVKPGASVKVSCKASGFTFTNYYIHWVRQAPGQGLEWIGWIYPGNVNTKYNEKFKARVTITADKSTSTAYMDLSSLRSEDTAVYYCARPTIIATDFDVWGQGTTVTVSS VL: DIVLTQSPSFLSASVGDRVTITCKASQGVGTAVGWYQQKPGKAPKLLIYWASTRHTGVPDRFSGSGSGTEFTLTISSLQPEDFAAYYCQQYSTYPFTFGGGTKLEIKR | 1.49 | 0.864 | 0.883 | no binding (tested: 10 µg/mL and dilutions thereof) |
| hSIRPα.50A.H3L2 (antibody, human IgG4 S228P, kappa, V domains shown, human IgG4 S228P, kappa; also called hSIRPα.50H3L2) VH: EVQLVQSGAEVVKPGASVMISCKASGFTFTNYYIHWVRQRPGQGLEWIGWIYPGNVNTKYNEKFKARVIMTADKSTSTVYMQLSSLTSEDTAVYYCARPTIIATDFDVWGQGTLVTVSS VL: DIVMTQSPSSLSASVGDRVTITCKASQGVGTAVGWYQQKPGKAPKLLIYWASTRHTGVPDRFSGSGSGTDFTLTISNLQPEDFADYYCQQYSTYPFTFGGGTKVEIKR | 1.5 | 0.999 | 1.05 | no binding (tested: 10 µg/mL and dilutions thereof) |
| hSIRPα.50A.H1L5 (antibody, human IgG4 S228P, kappa, V domains shown, human IgG4 S228P, kappa; also called hSIRPα.50H1L5) VH: EVQLQQSGAEVVKPGASVKVSCKASGFTFTNYYIHWVRQAPGQGLEWIGWIYPGNVNTKYNEKFKARVTITADKSTSTAYMDLSSLRSEDTAVYYCARPTIIATDFDVWGQGTTVTVSS VL: DIVLTQSPSFLSASVGDRVTITCKASQGVGTAVGWYQQKPGKSPKLLIYWASTRHTGVPDRFSGSGSGTEFTLTISNLQPEDFAAYYCQQYSTYPFTFGGGTKLEIKR | 1.01 | 0.848 | 0.962 | no binding (tested: 10 µg/mL and dilutions thereof) |
| hSIRPα.50A.H4L2 (antibody, human IgG4 S228P, kappa, V domains shown, human IgG4 S228P, kappa; also called hSIRPα.50H4L2) VH: EVQLQQSGAELVKPGASVKVSCKASGFTFTNYYIHWVRQRPGQGLEWMGWIYPGNVNTKYNEKFKAKATITADKSTSTAYMELSSLTSEDTAVYYCARPTIIATDFDVWGQGTTVTVSS VL: DIVMTQSPSSLSASVGDRVTITCKASQGVGTAVGWYQQKPGKAPKLLIYWASTRHTGVPDRFSGSGSGTDFTLTISNLQPEDFADYYCQQYSTYPFTFGGGTKVEIKR | 0.871 | 0.651 | 0.737 | no binding (tested: 10 µg/mL and dilutions thereof) |
